Test results: article PMC9306000

Substrate: CC(C)=C[C@@H]1[C@@H](C(=O)SCCNC(=O)CCNC(=O)[C@H](O)C(C)(C)COP(=O)(O)OP(=O)(O)OC[C@H]2O[C@@H](n3cnc4c(N)ncnc43)[C@H](O)[C@@H]2OP(=O)(O)O)C1(C)C
Experiment: purified protein
Details: 1 mM (S)-pyrethrolone, 50 mM Tris-HCl pH 7.5, 25 °C, 10 min

B1: TcGLIP (Tanacetum cinerariifolium) (protein)
chain: SQQAAALFIFGDSVFDPGNNNHINTHVNFKANFWPYGQSYFSSPTGRFSDGRIIPDFIAEYASLPIIPAYLEPNNDFTHGANFASAGAGALIASHAGLAVGLQTQLRYFGDLVDHYRQNLGDIKSRQLLSDAVYLFSCGGNDYQSPYYPYTQEQYVDIVIGNMTNVIKGIYEKGGRKFGVVNVPLIGCWPGMRAKQPGNTCNTEVDELTRLHNQAFAKRLEQLEKQLEGFVYAKFDLSTAILNRMKNPSKYGFKEGESACCGSGPFGGNYDCGRIKEFGLCDNATEYFFFDPFHPNELASRQFAEMFWDGDSMVTQPYNLKALFEGKPSTKYLPNDEL
Q: Which Km does the source give for B1 here?
A: Its Km is 520 ± 95 µM.

Q: What about the Vmax of the same protein?
A: Its Vmax is 0.14 µmol/min/mg.

Q: What about the Vmax/Km of the same protein?
A: The Vmax/Km was 269 µL/min/mg.
